Assay results from patent publication US20200354457A1 (Hoffmann-La Roche, published 2020).
Values joined by “and” are separate entries in the source; they are usually repeats but may differ in a detail not shown here. Equal values may be shown once. Each block holds one binder with its values, some of them ahead of it.

Experiments:
[1] = molecular target: T1, biotinylated MCSP antigen (amino acids 1553 to 2184 of matured melanoma-associated chondroitin sulfate … (Homo sapiens (Human), UniProt Q6UVK1 1582-2213, limits assumed, biotin on the C-terminal avi-tag)); assay: ELISA, biotinylated MCSP antigen on neutravidin plates, bacterial supernatants, anti-Flag/HRP
T1 construct: The entry may include the leader; also called recombinant MCSP
T1 sequence: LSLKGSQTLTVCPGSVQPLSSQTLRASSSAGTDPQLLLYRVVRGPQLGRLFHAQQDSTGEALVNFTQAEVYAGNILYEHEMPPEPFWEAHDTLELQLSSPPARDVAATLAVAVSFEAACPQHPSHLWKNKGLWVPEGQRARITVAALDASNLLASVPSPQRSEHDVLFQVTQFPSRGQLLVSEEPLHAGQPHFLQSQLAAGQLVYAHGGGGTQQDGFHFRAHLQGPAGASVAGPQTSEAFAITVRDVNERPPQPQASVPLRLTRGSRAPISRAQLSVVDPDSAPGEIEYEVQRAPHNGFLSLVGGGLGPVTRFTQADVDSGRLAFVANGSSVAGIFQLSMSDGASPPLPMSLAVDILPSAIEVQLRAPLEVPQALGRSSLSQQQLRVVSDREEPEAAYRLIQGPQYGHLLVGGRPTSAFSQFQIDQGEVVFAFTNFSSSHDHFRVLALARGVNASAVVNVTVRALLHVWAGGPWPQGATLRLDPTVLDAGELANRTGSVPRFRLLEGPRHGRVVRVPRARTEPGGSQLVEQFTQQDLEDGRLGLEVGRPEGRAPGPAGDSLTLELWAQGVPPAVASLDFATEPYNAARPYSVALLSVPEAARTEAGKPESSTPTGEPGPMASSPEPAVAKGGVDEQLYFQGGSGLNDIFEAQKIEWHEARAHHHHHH

[2] = molecular target: T2, murine LAG3-Fc antigen (R&D Systems, 3328-L3-050) (murine, UniProt Q61790 24-442); assay: ELISA using murine LAG3-Fc antigen
T2 construct: Bought reagent
T2 sequence (looked up): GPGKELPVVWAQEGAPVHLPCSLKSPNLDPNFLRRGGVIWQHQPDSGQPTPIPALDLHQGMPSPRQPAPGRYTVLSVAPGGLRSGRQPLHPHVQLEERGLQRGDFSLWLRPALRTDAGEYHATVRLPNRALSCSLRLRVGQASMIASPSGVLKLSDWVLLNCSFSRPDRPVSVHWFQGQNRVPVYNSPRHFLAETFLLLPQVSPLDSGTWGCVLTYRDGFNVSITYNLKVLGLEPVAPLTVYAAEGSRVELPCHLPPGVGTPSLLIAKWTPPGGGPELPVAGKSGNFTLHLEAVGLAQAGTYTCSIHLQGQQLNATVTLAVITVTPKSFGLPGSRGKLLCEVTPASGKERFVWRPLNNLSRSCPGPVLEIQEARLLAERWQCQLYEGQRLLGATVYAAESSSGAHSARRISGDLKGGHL

[3] = molecular target: T3, human LAG3 on recombinant CHO cells (human, UniProt P18627 23-525); assay: cell ELISA on CHO cells expressing human LAG3;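 note: bivalent Fc-format binders titrated in threefold steps from 6 µg/mL, incubated with the cells 2 h at 4 °C, bound antibody detected by HRP-coupled anti-human IgG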
T3 construct: whole, on cells; also called Lag3 cells; recombinant CHO cells expressing Lag3
T3 sequence (looked up): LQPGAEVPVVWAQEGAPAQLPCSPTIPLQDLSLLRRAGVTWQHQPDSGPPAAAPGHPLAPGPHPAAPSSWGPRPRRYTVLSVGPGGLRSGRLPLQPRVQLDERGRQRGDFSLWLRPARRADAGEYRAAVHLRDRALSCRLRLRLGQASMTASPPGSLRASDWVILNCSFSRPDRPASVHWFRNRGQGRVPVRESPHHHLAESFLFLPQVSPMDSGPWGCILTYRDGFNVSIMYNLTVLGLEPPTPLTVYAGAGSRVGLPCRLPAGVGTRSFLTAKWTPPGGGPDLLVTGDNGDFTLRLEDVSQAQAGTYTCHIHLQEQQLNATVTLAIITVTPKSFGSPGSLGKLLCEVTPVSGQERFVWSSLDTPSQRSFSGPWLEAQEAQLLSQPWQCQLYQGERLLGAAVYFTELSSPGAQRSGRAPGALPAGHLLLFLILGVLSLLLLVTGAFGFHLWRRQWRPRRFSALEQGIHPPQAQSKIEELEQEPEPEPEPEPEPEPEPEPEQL

[4] = molecular target: T4, recombinant human LAG3 Fc Chimera Protein (R&D Systems, 2319-L3) (human, UniProt P18627 23-450); assay: ELISA, plate coated with human LAG3 Fc chimera
T4 construct: Bought reagent
T4 sequence (looked up): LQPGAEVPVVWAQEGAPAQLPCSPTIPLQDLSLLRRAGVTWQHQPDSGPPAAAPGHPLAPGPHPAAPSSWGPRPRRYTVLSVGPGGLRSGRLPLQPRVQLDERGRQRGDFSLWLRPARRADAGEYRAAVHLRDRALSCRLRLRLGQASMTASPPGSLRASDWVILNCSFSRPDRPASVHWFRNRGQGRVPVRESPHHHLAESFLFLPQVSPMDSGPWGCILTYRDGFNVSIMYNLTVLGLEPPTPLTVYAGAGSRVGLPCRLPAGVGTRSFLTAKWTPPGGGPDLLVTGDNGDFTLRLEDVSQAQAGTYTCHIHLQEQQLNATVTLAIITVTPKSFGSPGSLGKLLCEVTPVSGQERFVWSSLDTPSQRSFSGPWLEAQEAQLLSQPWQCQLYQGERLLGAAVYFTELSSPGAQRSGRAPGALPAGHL

[5] = molecular target: T4, recombinant human LAG3 Fc Chimera …; assay: SPR (Biacore), aVH-Fc captured by anti-human Fc, human LAG-3 Fc chimera as analyte, 25 C
[6] = molecular target: T5, soluble human Lag3-IgG1-Fc with biotinylated C-terminal Avi-tag (human, biotin on the C-terminal Avi-tag); assay: A375 MHCII competition ELISA, biotinylated Lag3 250 ng/ml; competitor MHCII on A375 cells
T5 construct: also called LAG3-Fc-avi; biotinylated LAG3-Fc antigen

[7] = molecular target: T4, recombinant human LAG3 Fc Chimera …; assay: SPR (Biacore), aVH-Fc captured by anti-human Fc, human LAG-3 Fc chimera as analyte, 25 C; * poor fit
[8] = molecular target: T5, soluble human Lag3-IgG1-Fc with …; assay: A375 MHCII competition ELISA at 3 µg/ml, biotinylated Lag3 250 ng/ml; competitor MHCII on A375 cells
[9] = molecular target: T4, recombinant human LAG3 Fc Chimera …; assay: SPR (Biacore), antibody captured by anti-human Fc, human LAG-3 Fc chimera as analyte, 25 C

binding result [1]: binds
B1: SEQ ID NO 59 (VHH)
VHH: EVQLVESGGGLVQPGGSLRLSCAASSFNIKDTYIGWVRRAPGKGTELVADIYCSEGSTRYADSVKGRFTISCDTSKNTAYLQMNSLRAEDTAVYYCAAVSDYVVFYYWGQGTTVTVSS
notes: is one of clones 3, 25, 44, 57.1; also called MCSP-specific aVH

binding result [1]: binds
B2: SEQ ID NO 61 (VHH)
VHH: EVQLVESGGGLVQPGGSLRLSCAASSFNIKDTYIGWVRRAPGKGTELVAGIYCEAGITRYADSVKGRFTISCDTSKNTAYLQMNSLRAEDTAVYYCAGKGIGNYFDYWGQGTTVTVSS
notes: as for B1

binding result [2]: no binding | EC50 [3]: 0.0169 µg/mL and 0.2 nM | OD max [3]: 1.2 OD | OD max [4]: 1.3 OD | t1/2 [5]: 2.4 min | IC50 [6]: 0.0903 µg/mL and 1.2 nM | koff [7]: 0.0048 s⁻¹ | % Inhibition [8]: 92.4%
B3: bivalent P11A2 aVH-Fc (Fc fusion)
chain: EVQLVESGGGLVQPGGSLRLSCAASSFNIKDTYIGWVRRAPGKGTELVAEIACHEGTTRYADSVKGRFTISCDTSKNTAYLQMNSLRAEDTAVYYCANTEYDDIFDYWGQGTTVTVSSGGGGSGGGGSDKTHTCPPCPAPEAAGGPSVFLFPPKPKDTLMISRTPEVTCVVVDVSHEDPEVKFNWYVDGVEVHNAKTKPREEQYNSTYRVVSVLTVLHQDWLNGKEYKCKVSNKALGAPIEKTISKAKGQPREPQVYTLPPSRDELTKNQVSLTCLVKGFYPSDIAVEWESNGQPENNYKTTPPVLDSDGSFFLYSKLTVDKSRWQQGNVFSCSVMHEALHNHYTQKSLSLSPGK

OD max [3]: 2.06 OD | EC50 [4]: 0.0031 µg/mL and 0.02 nM | OD max [4]: 3.39 OD | IC50 [6]: 0.127 µg/mL and 0.8 nM | koff [9]: 0.00039 s⁻¹ | t1/2 [9]: 30 min | % Inhibition [8]: 90.4%
B4: control antibody MDX25F7 (antibody, V domains shown)
VH: QVQLQQWGAGLLKPSETLSLTCAVYGGSFSDYYWNWIRQPPGKGLEWIGEINHNGNTNSNPSLKSRVTLSLDTSKNQFSLKLRSVTAADTAVYYCAFGYSDYEYNWFDPWGQGTLVTVSS
VL: EIVLTQSPATLSLSPGERATLSCRASQSISSYLAWYQQKPGQAPRLLIYDASNRATGIPARFSGSGSGTDFTLTISSLEPEDFAVYYCQQRSNWPLTFGQGTNLEIK
